Molecular target: recombinant caprine β-lactoglobulin (unlabelled) (caprine) (UniProt P02756)
Assay: AUC

stoichiometry N: 2
Substance: recombinant caprine β-lactoglobulin (unlabelled) (from UniProt P02756 19-180) (natural protein)

Source: doi:10.1101/675587
